Test results published in patent US20230002480A1.

Experiments:
Assay in all cases: cell-based or functional assay
[1] = target: HIV-1 Env pseudovirus 6480.v4.c25 (HIV-1)
[2] = target: HIV-1 Env pseudovirus 3301.v1.c24 (HIV-1)
[3] = target: HIV-1 Env pseudovirus X2088_c9 (HIV-1)
[4] = target: HIV-1 Env pseudovirus BJOX010000.06.2 (HIV-1)
[5] = target: HIV-1 Env pseudovirus A07412M1.vrc12 (HIV-1)
[6] = target: HIV-1 Env pseudovirus 191955_A11 (HIV-1)
[7] = target: HIV-1 Env pseudovirus 235-47 (HIV-1)
[8] = target: HIV-1 Env pseudovirus 231966.c02 (HIV-1)
[9] = target: HIV-1 Env pseudovirus 0815.v3.c3 (HIV-1)
[10] = target: HIV-1 Env pseudovirus BJOX009000.02.4 (HIV-1)
[11] = target: HIV-1 Env pseudovirus 620345.c01 (HIV-1)
[12] = target: HIV-1 Env pseudovirus T278-50 (HIV-1)
[13] = target: HIV-1 Env pseudovirus CNE8 (HIV-1)
[14] = target: HIV-1 Env pseudovirus 231965.c01 (HIV-1)
[15] = target: HIV-1 Env of pseudovirus THRO4156.18 (clade B) (HIV-1)
[16] = target: HIV-1 Env of pseudovirus CNE21 (clade BC) (HIV-1)
[17] = target: HIV-1 Env of pseudovirus Ce1086_B2 (clade C (T/F)) (HIV-1)
[18] = target: HIV-1 Env of pseudovirus 1394C9G1(Rev-) (clade C (T/F)) (HIV-1)
[19] = target: HIV-1 Env of pseudovirus ZM233M.PB6 (clade C) (HIV-1)
[20] = target: HIV-1 Env of pseudovirus 7030102001E5(Rev-) (clade C (T/F)) (HIV-1)
[21] = target: HIV-1 Env of pseudovirus Ce704809221_1B3 (clade C (T/F)) (HIV-1)
[22] = target: HIV-1 Env of pseudovirus CNE17 (clade BC) (HIV-1)
[23] = target: HIV-1 Env of pseudovirus Ce1172_H1 (clade C (T/F)) (HIV-1)
[24] = target: HIV-1 Env of pseudovirus BF1266.431a (clade C (T/F)) (HIV-1)
[25] = target: HIV-1 Env of pseudovirus Q769.d22 (clade A) (HIV-1)
[26] = target: HIV-1 Env of pseudovirus Q259.d2.17 (clade A) (HIV-1)
[27] = target: HIV-1 Env of pseudovirus WITO4160.33 (clade B) (HIV-1)
[28] = target: HIV-1 Env of pseudovirus CNE58 (clade BC) (HIV-1)

Substance: N49P9.1 (antibody)
- IC50 [1]: 0.03 µg/mL
- IC80 [1]: 0.082 µg/mL
- MPI [1]: 100
- IC50 [2]: 0.059 µg/mL
- IC80 [2]: 0.178 µg/mL
- MPI [2]: 100
- IC50 [3]: 0.091 µg/mL
- IC80 [3]: 0.392 µg/mL
- MPI [3]: 100
- IC50 [4]: 0.883 µg/mL
- IC80 [4]: 4.26 µg/mL
- MPI [4]: 100
- IC50 [5]: 0.189 µg/mL
- IC80 [5]: 0.947 µg/mL
- MPI [5]: 100
- IC50 [6]: > 50 µg/mL
- IC80 [6]: > 50 µg/mL
- MPI [6]: 26
- IC50 [7]: 0.045 µg/mL
- IC80 [7]: 0.352 µg/mL
- MPI [7]: 98
- IC50 [8]: 0.067 µg/mL
- IC80 [8]: 0.237 µg/mL
- MPI [8]: 100
- IC50 [9]: 0.012 µg/mL
- IC80 [9]: 0.041 µg/mL
- MPI [9]: 100
- IC50 [10]: 0.965 µg/mL
- IC80 [10]: 3.93 µg/mL
- MPI [10]: 100
- IC50 [11]: > 50 µg/mL
- IC80 [11]: > 50 µg/mL
- MPI [11]: 7
- IC50 [12]: > 50 µg/mL
- IC80 [12]: > 50 µg/mL
- MPI [12]: 5
- IC50 [13]: 0.228 µg/mL
- IC80 [13]: 0.921 µg/mL
- MPI [13]: 100
- IC50 [14]: 0.474 µg/mL
- IC80 [14]: 2.24 µg/mL
- MPI [14]: 100

Substance: N49P19 (antibody)
- IC50 [1]: 3.04 µg/mL
- IC80 [1]: 28.2 µg/mL
- MPI [1]: 87
- IC50 [2]: 0.302 µg/mL
- IC80 [2]: 1.42 µg/mL
- MPI [2]: 98
- IC50 [3]: 1.4 µg/mL
- IC80 [3]: 3.76 µg/mL
- MPI [3]: 99
- IC50 [4]: 4.16 µg/mL
- IC80 [4]: 19.1 µg/mL
- MPI [4]: 96
- IC50 [5]: 3.89 µg/mL
- IC80 [5]: 48.8 µg/mL
- MPI [5]: 80
- IC50 [6]: > 50 µg/mL
- IC80 [6]: > 50 µg/mL
- MPI [6]: 16
- IC50 [7]: 0.44 µg/mL
- IC80 [7]: 3.23 µg/mL
- MPI [7]: 89
- IC50 [8]: 0.653 µg/mL
- IC80 [8]: 4.55 µg/mL
- MPI [8]: 100
- IC50 [9]: 0.176 µg/mL
- IC80 [9]: 0.743 µg/mL
- MPI [9]: 100
- IC50 [10]: 3.66 µg/mL
- IC80 [10]: 25.6 µg/mL
- MPI [10]: 87
- IC50 [11]: > 50 µg/mL
- IC80 [11]: > 50 µg/mL
- MPI [11]: 0
- IC50 [12]: > 50 µg/mL
- IC80 [12]: > 50 µg/mL
- MPI [12]: 35
- IC50 [13]: 0.772 µg/mL
- IC80 [13]: 4.84 µg/mL
- MPI [13]: 97
- IC50 [14]: > 50 µg/mL
- IC80 [14]: > 50 µg/mL
- MPI [14]: 22

Substance: N49P9 (antibody)
- IC50 [1]: 0.017 µg/mL
- IC80 [1]: 0.047 µg/mL
- MPI [1]: 100
- IC50 [2]: 0.072 µg/mL
- MPI [2]: 100
- IC50 [3]: 0.07 µg/mL
- IC80 [3]: 0.252 µg/mL
- MPI [3]: 100
- IC50 [4]: 0.482 µg/mL
- IC80 [4]: 2.34 µg/mL
- MPI [4]: 100
- IC50 [5]: 0.142 µg/mL
- IC80 [5]: 0.636 µg/mL
- MPI [5]: 100
- IC50 [6]: > 50 µg/mL
- IC80 [6]: > 50 µg/mL
- MPI [6]: 35
- IC50 [7]: 0.072 µg/mL
- IC80 [7]: 0.271 µg/mL
- MPI [7]: 98
- IC50 [8]: 0.074 µg/mL
- IC80 [8]: 0.244 µg/mL
- MPI [8]: 100
- IC50 [9]: 0.02 µg/mL
- IC80 [9]: 0.057 µg/mL
- MPI [9]: 100
- IC50 [10]: 0.727 µg/mL
- IC80 [10]: 3.29 µg/mL
- MPI [10]: 100
- IC50 [11]: > 50 µg/mL
- IC80 [11]: > 50 µg/mL
- MPI [11]: 9
- IC50 [12]: > 50 µg/mL
- IC80 [12]: > 50 µg/mL
- MPI [12]: 25
- IC50 [13]: 0.056 µg/mL
- IC80 [13]: 0.26 µg/mL
- MPI [13]: 100
- IC50 [14]: 0.253 µg/mL
- IC80 [14]: 1.16 µg/mL
- MPI [14]: 100

Substance: N49P7.2 (antibody)
- IC50 [15]: 6.29 µg/mL
- IC80 [15]: 33.3 µg/mL
- MPI [15]: 94
- IC50 [16]: 48.3 µg/mL
- IC80 [16]: > 50 µg/mL
- MPI [16]: 51
- IC50 [17]: 0.166 µg/mL
- IC80 [17]: 1 µg/mL
- MPI [17]: 100
- IC50 [18]: > 50 µg/mL
- IC80 [18]: > 50 µg/mL
- MPI [18]: 20
- IC50 [19]: 0.475 µg/mL
- IC80 [19]: 2.14 µg/mL
- MPI [19]: 99
- IC50 [20]: 0.313 µg/mL
- IC80 [20]: 1.03 µg/mL
- MPI [20]: 100
- IC50 [21]: 0.874 µg/mL
- IC80 [21]: 3.88 µg/mL
- MPI [21]: 100
- IC50 [22]: 0.376 µg/mL
- IC80 [22]: 1.24 µg/mL
- MPI [22]: 100
- IC50 [23]: > 50 µg/mL
- IC80 [23]: > 50 µg/mL
- MPI [23]: 6
- IC50 [24]: 0.029 µg/mL
- IC80 [24]: 0.159 µg/mL
- MPI [24]: 100
- IC50 [25]: 0.029 µg/mL
- IC80 [25]: 0.14 µg/mL
- MPI [25]: 100
- IC50 [26]: 38.5 µg/mL
- IC80 [26]: > 50 µg/mL
- MPI [26]: 54
- IC50 [27]: 0.051 µg/mL
- IC80 [27]: 0.215 µg/mL
- MPI [27]: 100
- IC50 [28]: 0.045 µg/mL
- IC80 [28]: 0.129 µg/mL
- MPI [28]: 100

Substance: N49P18.1 (antibody)
- IC50 [15]: > 50 µg/mL
- IC80 [15]: > 50 µg/mL
- MPI [15]: 19
- IC50 [16]: 7.93 µg/mL
- IC80 [16]: 29.2 µg/mL
- MPI [16]: 95
- IC50 [17]: 8.98 µg/mL
- IC80 [17]: 48 µg/mL
- MPI [17]: 92
- IC50 [18]: > 50 µg/mL
- IC80 [18]: > 50 µg/mL
- MPI [18]: 17
- IC50 [19]: 38.4 µg/mL
- IC80 [19]: > 50 µg/mL
- MPI [19]: 57
- IC50 [20]: 6.35 µg/mL
- IC80 [20]: 17.7 µg/mL
- MPI [20]: 98
- IC50 [21]: 41.6 µg/mL
- IC80 [21]: > 50 µg/mL
- MPI [21]: 59
- IC50 [22]: 39.7 µg/mL
- IC80 [22]: > 50 µg/mL
- MPI [22]: 56
- IC50 [23]: 46.4 µg/mL
- IC80 [23]: > 50 µg/mL
- MPI [23]: 52
- IC50 [24]: 3.48 µg/mL
- IC80 [24]: 20.8 µg/mL
- MPI [24]: 93
- IC50 [25]: 4.92 µg/mL
- IC80 [25]: 18.3 µg/mL
- MPI [25]: 97
- IC50 [26]: > 50 µg/mL
- IC80 [26]: > 50 µg/mL
- MPI [26]: 37
- IC50 [27]: 11 µg/mL
- IC80 [27]: 37.6 µg/mL
- MPI [27]: 87
- IC50 [28]: 1.92 µg/mL
- IC80 [28]: 5.26 µg/mL
- MPI [28]: 100
